Measurements as given in patent US20260152559A1 (Janssen / Centocor, published 2026).
Changes are numbered by the printed parent chain. Blank lines part the entries; values can stand above or below the binder they belong to.

Experiments:
[1] = target: T1, kallikrein related peptidase 2 (hK2), soluble (human, UniProt P20151 19-261, biotin label in the CAR staining assays (site not stated)); assay: SPR; antibody captured on anti-Fc sensor chip, soluble hK2 injected; 1:1 Langmuir fit, KD = koff/kon
T1 construct: also called KLK2; human KLK2 protein
T1 sequence (P20151 19-261): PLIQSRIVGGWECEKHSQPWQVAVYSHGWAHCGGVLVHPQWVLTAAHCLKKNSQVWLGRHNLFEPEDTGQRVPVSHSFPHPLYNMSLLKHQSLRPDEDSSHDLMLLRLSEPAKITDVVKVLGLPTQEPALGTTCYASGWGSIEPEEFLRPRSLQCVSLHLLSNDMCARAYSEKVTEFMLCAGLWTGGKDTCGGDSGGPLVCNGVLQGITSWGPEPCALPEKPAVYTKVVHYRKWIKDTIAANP

[2] = target: T1, kallikrein related peptidase 2 (hK2), …; assay: flow cytometry, primary human T cells transduced with the CAR lentivirus (MOI 3), biotinylated hK2 (1 ug/ml) then streptavidin-PE, 14 days after transduction; UTD gate 0.086 [contd]
[3] = target: T1, kallikrein related peptidase 2 (hK2), …; assay: flow cytometry, primary human T cells transduced with the CAR lentivirus (MOI 3), biotinylated hK2 (1 ug/ml) then streptavidin-PE, 14 days after transduction; UTD gate 0.086
[4] = target: T1, kallikrein related peptidase 2 (hK2), …; assay: SPR; bispecific antibody captured on anti-Fc sensor chip, soluble hK2 injected; 1:1 Langmuir fit
Experimental: Affinity of selected hK2×CD3 bispecific antibodies to hK2 or human CD3 was measured by surface plasmon resonance (SPR). SPR is a label-free technique to study the strength of an interaction between two binding partners by measuring the change in mass upon complex formation and dissociation. Antibodies were captured on a sensor chip coated with an anti-Fc antibody followed by injection of soluble hK2 or soluble recombinant human CD3 at various concentrations and specified association and dissociation times. Post dissociation, the surface was regenerated with an appropriate solution to prepare for the next interaction. Kinetic information (on-rate and off-rate constants) were extracted by fitting sensorgrams to the 1:1 Langmuir model. Binding affinity (KD) are reported as the ratio of rate constants (koff/kon).

Kd [1]: 0.7 to 1 nM
B1: KL2B359 (scFv-LH-Fc) (Fc fusion)
chain: EIVLTQSPATLSLSPGERATLSCRASESVEYFGTSLMHWYQQKPGQPPRLLIYAASNVESGIPARFSGSGSGTDFTLTISSVEPEDFAVYFCQQTRKVPYTFGGGTKVEIKGGSEGKSSGSGSESKSTGGSQVQLQESGPGLVKPSQTLSLTCTVSGNSITSDYAWNWIRQFPGKRLEWIGYISYSGSTTYNPSLKSRVTISRDTSKNQFSLKLSSVTAADTAVYYCATGYYYGSGFWGQGTLVTVSSEPKSSDKTHTCPPCPAPEAAGGPSVFLFPPKPKDTLMISRTPEVTCVVVSVSHEDPEVKFNWYVDGVEVHNAKTKPREEQYNSTYRVVSVLTVLHQDWLNGKEYKCKVSNKALPAPIEKTISKAKGQPREPQVYVLPPSREEMTKNQVSLLCLVKGFYPSDIAVEWESNGQPENNYLTWPPVLDSDGSFFLYSKLTVDKSRWQQGNVFSCSVMHEALHNHYTQKSLSLSPG
notes: also called KL2B359-LH-scFv-Fc

Kd [1]: 0.04 nM
B12: KL2B242 (Fab) (Fab, V domains shown)
VH: QVQLQESGPGLVKPSETLSLTCTVSGGSISSYYWSWLRQPAGSGLEWIGRLYVSGFTNYNPSLKSRVTLSLDPSRNQLSLKLSSVTAADTAVYYCAGDSGNYWGWFDPWGQGTLVTVSS
VL: SYELTQPPSVSVSPGETASITCSGDQLGENYACWYQQKPGQSPVLVIYQDSKRPSGIPERFSGSNSGNTATLTISGTQALDEADYYCQAWDNSIVVFGGGTKLTVL

Kd [1]: 0.053 nM
B13: KL2B494 (Fab) (Fab, V domains shown)
VH: QVQLVESGGGLVQPGGSLRLSCAASGFTFSHYAMSWVRQAPGKGLEWVSTIGGSGGSTYYADSVKGRFTISRDNSKNTLYLQMNSLRAEDTAVYYCAKPHIVMVTALLYDGMDVWGQGTMVTVSS
VL: SSELTQPPSVSVAPGQTARITCGGNNIGSKSVHWYQQKPGQAPVLVVYDDSDRPSGIPERFSGSNSGNTATLTISRVEAGDEADYYCQVWDSSSDHVVFGGGTKLTVL

Kd [4]: 0.06 nM
B14: KL2B494 Fab (binding arm listed in Table 39 for hK2/CD3 bispecific antibodies) (bispecific antibody, V domains shown)
VH: B13 VH
VL: B13 VL

Kd [1]: 34.3 nM
B16: KL2B413 (scFv-LH-Fc) (Fc fusion)
chain: EIVLTQSPSFLSASVGDRVTITCRASQGISSYLSWYQQKPGKAPKLLIYATSTLQSGVPSRFSGSGSGTEFTLTISSLQPEDFATYYCQQLNSYPRTFGQGTKVEIKGGSEGKSSGSGSESKSTGGSEVQLVESGGGLVQPGGSLRLSCAASGFTFSSYWMTWVRQAPGKGLEWVANIKQDGSERYYVDSVKGRFTISRDNAKNSLYLQMNSLRAEDTAVYYCARDQNYDILTGHYGMDVWGQGTTVTVSSEPKSSDKTHTCPPCPAPEAAGGPSVFLFPPKPKDTLMISRTPEVTCVVVSVSHEDPEVKFNWYVDGVEVHNAKTKPREEQYNSTYRVVSVLTVLHQDWLNGKEYKCKVSNKALPAPIEKTISKAKGQPREPQVYVLPPSREEMTKNQVSLLCLVKGFYPSDIAVEWESNGQPENNYLTWPPVLDSDGSFFLYSKLTVDKSRWQQGNVFSCSVMHEALHNHYTQKSLSLSPG
notes: also called KL2B413-LH-scFv-Fc

Kd [4]: 0.09 nM
B17: KL2B467 Fab (binding arm listed in Table 39 for hK2/CD3 bispecific antibodies) (bispecific antibody, V domains shown)
VH: QVQLVESGGGVVQPGRSLRLSCAASGFTFSYYGMHWVRQAPGKGLEWVAFISYDGSNKYYADSVKGRFTISRDNSKNTLYLQMNSLRAEDTAVYYCAHLPYSGSYWAFDYWGQGTQVTVSS
VL: QSVLTQPPSVSVAPGQTASITCGGDNIGSKSVHWYQQKPGQAPVLVVYDNSDRPSGIPERFSGSNSGTTATLTISRVEAGDEADYYCQVWDSSSDHPVVFGGGTKVTV

Kd [1]: 0.078 nM
B18: KL2B467 (Fab) (Fab, V domains shown)
VH: B17 VH
VL: B17 VL

Second part, the binder before the results:

B2: CAR8 (LH_LCB7_HCF3_20AA) (other)
chain: DIVLTQSPDSLAVSLGERATINCKASESVEYFGTSLMHWYQQKPGQPPKLLIYAASNRESGVPDRFSGSGSGTDFTLTISSVQAEDVAVYYCQQTRKVPYTFGQGTKLEIKGGSEGKSSGSGSESKSTGGSQVQLQESGPGLVKPSDTLSLTCAVSGNSITSDYAWNWIRQFPGKGLEWIGYISYSGSTTYNPSLKSRVTISRDTSKNQFSLKLSSVTPVDTAVYYCATGYYYGSGFWGQGTLVTVSSTSTPAPRPPTPAPTIASQPLSLRPEACRPAAGGAVHTRGLDFACDIYIWAPLAGTCGVLLLSLVITLYCKRGRKKLLYIFKQPFMRPVQTTQEEDGCSCRFPEEEEGGCELRVKFSRSADAPAYKQGQNQLYNELNLGRREEYDVLDKRRGRDPEMGGKPRRKNPQEGLYNELQKDKMAEAYSEIGMKGERRRGKGHDGLYQGLSTATKDTYDALHMQALPPR
notes: Chimeric antigen receptor on JNL cells or primary human T cells; also called hK2 CAR; pDR000083443
% of cells in the hK2CAR+ CD3+ gate [2]: 21.5%

B3: CAR15 (LH_LCHumanized_HCHumanized_20AA) (other)
chain: B2 chain with V82L, F172P, I201M, P219A
notes: Chimeric antigen receptor with the hu11B6 scFv in VL-linker-VH order, on JNL cells or primary human T cells; also called 11B6_LH; parental 11B6 CAR LH
% of cells in the hK2CAR+ CD3+ gate [3]: 22.6%

B4: CAR7 (LH_LCHumanized_HCG5_20AA) (other)
chain: B2 chain with V82L, I180M
notes: Chimeric antigen receptor on JNL cells or primary human T cells; also called hK2 CAR; pDR000083441
% of cells in the hK2CAR+ CD3+ gate [3]: 35%

B5: CAR6 (LH_LCHumanized_HCF3_20AA) (other)
chain: B2 chain with V82L
notes: Chimeric antigen receptor on JNL cells or primary human T cells; also called hK2 CAR; pDR000083440
% of cells in the hK2CAR+ CD3+ gate [3]: 27.8%

B6: CAR9 (LH_LCB7_HCG5_20AA) (other)
chain: B2 chain with I180M
notes: Chimeric antigen receptor on JNL cells or primary human T cells; also called hK2 CAR; pDR000083444
% of cells in the hK2CAR+ CD3+ gate [2]: 30.6%

B7: CAR4 (HL_HCG5_LCB7_20AA) (other)
chain: QVQLQESGPGLVKPSDTLSLTCAVSGNSITSDYAWNWIRQFPGKGLEWMGYISYSGSTTYNPSLKSRVTISRDTSKNQFSLKLSSVTPVDTAVYYCATGYYYGSGFWGQGTLVTVSSGGSEGKSSGSGSESKSTGGSDIVLTQSPDSLAVSLGERATINCKASESVEYFGTSLMHWYQQKPGQPPKLLIYAASNRESGVPDRFSGSGSGTDFTLTISSVQAEDVAVYYCQQTRKVPYTFGQGTKLEIKTSTPAPRPPTPAPTIASQPLSLRPEACRPAAGGAVHTRGLDFACDIYIWAPLAGTCGVLLLSLVITLYCKRGRKKLLYIFKQPFMRPVQTTQEEDGCSCRFPEEEEGGCELRVKFSRSADAPAYKQGQNQLYNELNLGRREEYDVLDKRRGRDPEMGGKPRRKNPQEGLYNELQKDKMAEAYSEIGMKGERRRGKGHDGLYQGLSTATKDTYDALHMQALPPR
notes: Chimeric antigen receptor on JNL cells or primary human T cells; also called hK2 CAR; pDR000083437
% of cells in the hK2CAR+ CD3+ gate [2]: 42.7%

B8: CAR13 (HL_HCHumanized_LCHumanized_20AA) (other)
chain: B7 chain with F41P, M49I, I70M, P88A, V219L
notes: Chimeric antigen receptor with the hu11B6 scFv in VH-linker-VL order, on JNL cells or primary human T cells; also called 11B6_HL; parental 11B6 CAR HL
% of cells in the hK2CAR+ CD3+ gate [3]: 6.12%

B9: CAR2 (HL_HCG5_LCHumanized_20AA) (other)
chain: B7 chain with V219L
notes: Chimeric antigen receptor on JNL cells or primary human T cells; also called hK2 CAR; pDR000083432
% of cells in the hK2CAR+ CD3+ gate [3]: 23.6%

B10: CAR3 (HL_HCF3_LCB7_20AA) (other)
chain: B7 chain with M49I
notes: Chimeric antigen receptor on JNL cells or primary human T cells; also called hK2 CAR; pDR000083436
% of cells in the hK2CAR+ CD3+ gate [2]: 29.4%

B11: CAR1 (HL_HCG5_LCD6_20AA) (other)
chain: B7 chain with S217Q, A225S, Y228F
notes: Chimeric antigen receptor (scFv, CD8a hinge and transmembrane region, 4-1BB and CD3-zeta domains) on JNL cells or primary human T cells; also called hK2 CAR; pDR000083431
% of cells in the hK2CAR+ CD3+ gate [3]: 20%

B15: KL2B30 (Fab) (Fab, V domains shown)
VH: QVQLQESGPGLVKPSETLSLTCTVSGGSISSYYWSWIRQPPGKGLEWIGYIYYSGSTNYNPSLKSRVTISVDTSKNQFSLKLSSVTAADTAVYYCAGTTIFGVVTPNFYYGMDVWGQGTTVTVSS
VL: DIQMTQSPSFLSASVGDRVTITCRASQGISSYLAWYQQKPGKAPKFLIYAASTLQSGVPSRFSGSGSGTEFTLTISSLQPEDFATYYCQQLNSYPLTFGGGTKVEIK
Kd [1]: 0.46 nM

B19: KL2B53 (Fab) (Fab, V domains shown)
VH: EVQLVESGGGVVQPGRSLRLSCVASGFTFSSYDIHWVRQAPGKGLEWVAIISYDGSKKDYTDSVKGRFTISRDNSKNTLYLQMDSLRVEDSAVYSCARESGWSHYYYYGMDVWGQGTMVTVSS
VL: DIVMTQSPSSLSASVGDRVTITCRASQDISNYLAWYQQKPGKVPKFLIYAASTLHSGVPSRFSGSGSGTDFTLTISSLQPEDVATYYCQKYNSAPYTFGQGTRLEIK
Kd [1]: 0.08 nM
